The data set can be described thus: label from the status in PepcDB records.
Regarding “MQEAEAIYQSGMKILNGSTRKNQKREAYRYLQKAAGMNHTKALERVSYALLFGDYLTQNIQAAKEMFEKLTEEGSPKGQTGLGFLYASGLGVNSSQAKALVYYTFGALGGNLIAHMVLGYRYWAGIGVLQSCESALTHYRLVANHVASDISLTGGSVVQRIRLPDEVENPGMNSGMLEEDLIQYYQFLAEKGDVQAQVGLGQLHLHGGRGVEQNHQRAFDYFNLAANAGNSHAMAFLGKMYSEGSDIVPQSNETALHYFKKAADMGNPVGQSGLGMAYLYGRGVQVNYDLALKYFQKAAEQGWVDGQLQLGSMYYNGIGVKRDYKQALKYFNLASQGGHILAFYNLAQMHASGTGVMRSCHTAVELFKNVCERGRWSERLMTAYNSYKDDDYNAAVVQYLLLAEQGYEVAQSNAAFILDQREATIVGENETYPRALLHWNRAASQGYTVARIKLGDYHFYGFGTDVDYETAFIHYRLASEQQHSAQAMFNLGYMHEKGLGIKQDIHLAKRFYDMAAEASPDAQVPVFLALCKLGVVYFLQYIREANIRDLFTQLDMDQLLGPEWDLYLMTIIALLLGTVIAYRQRQHQDIPVPRPPGPRPAPPQQEGPPEQQPPQ”, the protein production entry is on record as “failed”. The entry for “MQECTNVQVSKMMLSAPQHLVGGSVSEITPNRDLSLDSMHTSQVKQNIRALWTALVLLSVFFCIELSAGIWSHSLSLLADAEHILSDVAALGLALIASWLSQSISQRTIFGRYKLEVLAALINGISLACIACWIVREALVRLQSPTTEILGVPMLTTALIGVGVNSFNALCLHKCSHKDLNIRGALLHLIADLASSVGAVLAAIAIIWLNWTWADGVISLVVAMLIASFAAYLLIQSVQCLRGQIADISDIACMCPPQSEVCVDRQQAEKLLFPTLEELVQ” is “failed”; for “MQEELAWETDGLLPLERQLHEAARQNNVGRMQELIGRRVNTRARNHVGRVALHWAAGAGHEQAVRLLLEHEAAVDEEDAVGALTEARLCFGMNALLLSAWFGHLRILQILVNSGAKIHCESKDGLTLLHCAAQKGHVPVLAFIMEDLEDVALDHVDKLGRTAFHRAAEHGQLDALDFLVGSGCDHNVKDKEGNTALHLAAGRGHMAVLQRLVDIGLDLEEQNAEGLTALHSAAGGSHPDCVQLLLRAGSTVNALTQKNLSCLHYAALSGSEDVSRVLIHAGGCANVVDHQGASPLHLAVRHNFPALVRLLINSDSDVNAVDNRQQTPLHLAAEHAWQDIADMLLIAGVDLNLRDKQGKTALAVAVRSNHVSLVDMIIKADRFYRWEKDHPSDPSGKSLSFKQDHRQETQQLRSVLWRLASRYLQPREWKKLAYSWEFTEAHVDAIEQQWTGTRSYQEHGHRMLLIWLHGVATAGENPSKALFEGLVAIGRRDLAGWSTMARSQLTATSASRVQMILVPQPPE” it is “failed”; for “MQEESHIEEVEIQNKLEVAPALISVHPSQKSVAVAVGSDLRIFDLIENCPVSLVDESDGPIRKESIRAIRYSTSGKLFVSAGDDKLVKIWSADSWRCLNTVCSEKRVSAVAISSDDSHVCYADKFGVVWVIELDGINDGKTLPSKKGALLLSHYCSIITSLEFSPDGRYILSADRDFKIRVTVFPKKPLEGAHEIQSFCLGHSEFITCTAFVSTPELTQGYLMSGSGDSTVRLWDITSGSLLDTCEVSTVAGHAESNENESPTQVTVTDICAIPNSSLAAVAIQSFQGIFLLSCDLTAHTLSITKVIKIPGESFIPTSIAVSASSRLLWMVSGASNLPGSNHPGFSRVRVISCLETESSSILEDEQIPGGTKLLEQLQGKVTIEESVMSAAAEAVRAAMSSLLMKKQYSEEKREFRKRTRNDKKTTR” it is “failed”.

As to “MQEGNFKAGTYSAARQGIGGDVTVTLDIDAQGKVLKSTIDALEETPEVGGEAAIELAKTMTEKQSIQVDGVSGATMTSGAVHEAAEDAYSQAKANLEHHHHHH”, the protein production result is reported as “not failed”. The entry for “MQEIEIFCDGSSLGNPGPGGYAAILRYKDKEKTISGGEEFTTNNRMELRALNEALKILKRPCRITLYSDSQYVCQAINVWLANWQKKNFSKVKNVDLWKEFLEVSKGHSIVAVWIKGHNGHAENERCDSLAKLEAQKRVKTTT” is “failed”; for “MQESVVRVDYDSLETCKNFKPSVGTELIVLEKDIAHARFKGNESMVYEENFVHAGFVLIACNYAALCALNKRHSVVVSNNINFYAPLELNQEALIKAQVIQDGVKKAEIKIEAFVLDIQVLEGMIEIVVFDKKPFKFNFKEELEHHHHHH” it is “failed”. The entry for “MQETDSGAGPRTLRRGLMVLAALRDQGPRGLSVTDIARQTGIQRPTIYRLLAALLDAGLVVPLQGTKKYRTQLAADADLAAPNPRVRQMLPVLRRLADRTGDAVFLVVRDGDDSVSLHREIGSYPVQILATYAGKRQPLGVGSGSMALLAALPDEVAHAIVQRNSGRLDEYGGMTPQEMHRLIENTRARGYSVVGNHAVRGALGVGCALLDAQGAPVLAVSVTAIIDRMPAQRQREIAGWIGAELARLAPKA” is “failed”; for “MQFFGGSEISPSPPVPTASGNNAHMMYVFNRNGVCLLYKEWNRPLHTLNPQQDHKLMFGLLFSLKSLTAKMDPVNADKGNLGVPQLPGQGCSFHSFRTNTYKLSFMETPSGIKIILVTHPKTGDLRESLKYIYSLYVEYVVKNPIYSPGSPIKSELFNTALDQYVRSIS” it is “failed”. With “MQFGIFTVGDVTPDPTTGRTPTEHERIKAMTTIAKHAEDVGLDVFATGEHHNPPFVPSSPTTMLGYLAAQTEKIILSTSTTLITTNDPVKIAEDYAMLQHLADGRVDLMMGRGNTAPVYPWFGQDIRQGIPLALEHYRLLRRLWDEDVVDWQGQFRTPLQGFTSTPRPLDGIAPFVWHGSIRSPEIAEIAAFHGDGFFANNIFWPKEHYIALINLYRERYEHYGHGRADQAIVGLGGQVFMRRNAKDAVDEFRPYFDNAPVYGHGPSLEDFTEQTPLTVGTPEQVIEKTLTFADFFGDYQRQLFLVDHAGLPLKTVLEQLDLLGGEVVPVLRKEFAARR” the entry was “failed”; with “MQFIKNLQLNKKKDSDSSEQVLTNKKNKMKYEDFNFIRTLGTGSFGRVILATYKNGNYPPVAIKRFEKCKIIRQKQVDHVFSERKILNYINHPFCVNLHGSFKDDSYLYLVLEFVIGGEFFTFLRRNKRFPNDVGCFYAAQIVLIFEYLQSLNIVYRDLKPENLLLDKDGFIKMTDFGFAKIVETRTYTLCGTPEYIAPEILLNVGHGKAADWWTLGIFIYEILVGCPPFYANEPLLIYQKILEGIIYFPKFLDNNCKHLMKKLLSHDLTKRYGNLKKGAQNVKEHPWFSNIDWVNLLNKNVEVPYKPKYKNIFDSSNFERVQEDLTIADKITNENDPFYDW”, “failed”; with “MQFIPPILCKMNGRRQLNMHQQTKRLITISMLSAVAFILMFIKFPIPFLPPYLTLDFGDVPALLATFILGPVAGLIVEFIKNLLNFLFNIGDPVGPVANFLAASSFLLTAYFVTKYKDKIKSQIVGLSIATVVMTIVLSILNYFVLLPLYGMIMNLSDVVENVKIVIVSGVIPFNIIKGIVISIIFILLYNRLKNVLPK”, “failed”. For “MQFIVSKKEFIPPVIAPDIIETLGDDYEIWTYEDYERLPPLLVGVYSYSAIPKCLAPLSTQGLVKSGVFRLQREFVPGLYGNGVYVVVIDTGVNYAQEAFMTPEGKTKIAVLWDQNTDTVYSEDEINAAILSENPYESIPGDEDGHGTFVASVICGNDRPQDDFAGVAPQAKLIVVKLKRAPQKLYDFYFIPDRKMVYSEVDVMRAVHFADEFAGQKGAPAVFCMALGCNNGSHTGAEDLSEYLDYITAKRGRAVVAAAGNEANSRHHYKGRITDTVDDIEINVEQDMDGFYLECWALSPELFTLSVISPSGQSNPAGVPMRIDSGEYSFLLEGTQVTIDYRQTGRQTRDLLIFIRFEKVVKGVWTIRVFPLSTIGGVFNMWLPMTGLLDADVSFIVSEPDTTLTMPSDAKLVITAGGYNSLNDAILLESGRGFDADGGIKPDLVAPAVDITGANLRGMYIALSGTSAAAAITAAVAALIMEWMIVRGNVLLANGVDIKNVMVRNCRRKEKTDYPNKIFGYGFMNGFANF”, the protein production result is given as “failed”. Regarding “MQFQDVRLMRVVVCRRLGPAKGQRRWHPLDLGTTGCFENLGAQRPTYRMRAIRMLECAMPNRLVRSLQRWRPFGLPPHRWRLAPWYWRGLQVTLEPGSAIAWIVRLTGGFEETEIDIAAALYSALYPDRCILDVGANVGIHSLAWARLAPVVALEPAPGTHSRLEANVAANGLQDRIRTLRTAAGDAVGEVDFFVAADSAFSSLNDTGRIRIRERTRVPCTTLDALAAELPLPVGLLKIDVEGLERAVIAGAAELLRRDRPVLLVEIYGGAASNPDPERTIADIRAYGYEPFVYADDAGLQPYQRHRDDRYCYFFIPSRKG”, the protein production entry is given as “failed”. As for “MQGGMMKQLVVAGFFLLLLTSPLSALDVDTYRSSQKQFNTEDKAEQGDAQAQFELGLKYEKGDGVNKDLKKAIYWYQKAADQGQAEAQNNLGVLYLKGEGVPQNSQQAMYWFKKASEQGLAIGQNNIGILYENGLGVKKDPGQAFIWYQKAAEGGNSDGQYNLAVMYMYGNGIPKDIKKAIHWYIKAAEQGDLDAQNNLGVLYERGEEVPRDLKAAISWYTRAANEGSLIAQTNLGVLYMTGDPSIQDGKKAIYWYEKAAAQGGEKAQNNLGYIYEQGIGTEKDMKKAIYWYEKAAENGFTLAQNNLGVLYSNDGELQDYKKAYLWFKKAADQGFAEAQNNLGLMYMKGNGLSVNYHEAVLWYKRAAEQGLPLAQHNLAIMYMKGLGIKKDNKLAIKWYQKAAEKGLDLAQNNLAVMYIRGEGVKRDFKKAMYWYQKAAEQGLDLAQINLGIMYLDGMGVNKDFAKAKYWIGKAKDSGSQDALTIWNKNKLWKYQ”, the protein production entry is listed as “failed”.

For “MQGIGEGVRRAFPIVLGYVPVGFAFGVLALKSGIPAWGALAMSLFVFAGSGQLIAVGLIGGGAPLASVVLTTFVVNLRHLLMSAALAPRLRDWGLLRQALFSAEMTDETFAVHVSTLRGEADDPSRAAVFACNVTAHAAWVGGSALGVFCSTLVADVRPLGLDYALAAMFIALLLPQCRSRAHLFAALVAGACSVGFALSGAGRWNVMLATVCAATLVSLLPVGKTSTTREEMGTPGGEGGAHAD”, the protein production result is recorded as “failed”.

In the case of “MQGIKNLTHGPINRQLFNLAMPIMATSFIQMAYSLTDMAWVGRLGSEAVAAIGSVGILTWMSGSISLLNKVGSEVSVGQSIGAQNQEDARQFASHNITIALIISICWGGLLFMFASPIIRIYELEEHITANAIEYLRIISTALPFIFLSAAFTGIYNAAGRSKIPFYISGTGLIMNIILDPLFIFGFGLGTNGAAYATWLSQATVFAIFIYQLRFRKDALLGGFPFFSRLKKKYTRRILKLGLPVATLNTLFAFVNMFLCRTASEQGGHIGLMTFTTGGQIEAITWNTSQGFSTALSAFIAQNFAAGRIERVLKAWHTTLWMTGIFGTFCTLLFVFYGNEVFSIFVPEQAAYEAGGVFLRIDGYSQLFMMLEITMQGVFYGIGRTVPPAIVSIVCNYMRIPLAILFVRMGMGVEGIWWAVCVTTIAKGLILLGWFTMIRKKCLNLPSVSTR”, the protein production entry is given as “failed”.

Values taken from a protein production outcome set (Wang et al. 2014).
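Further: failed if final PepcDB status was selected cloned or expressed and not failed if soluble or beyond.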
